This note sets out measurements from patent US20190330625A1, “CONSEQUENCES OF A DEFECTIVE SWITCH IN CUTANEOUS SQUAMOUS CELL CARCINOMA” (AGENCY FOR SCIENCE, TECHNOLOGY AND RESEARCH, published 2019).

Data set [1] addresses T1, Wnt7a (UniProt O00755 32-349, limits assumed).
T1 construct: Endogenous protein of the A253 (HNSCC) cell lysate
T1 sequence (looked up): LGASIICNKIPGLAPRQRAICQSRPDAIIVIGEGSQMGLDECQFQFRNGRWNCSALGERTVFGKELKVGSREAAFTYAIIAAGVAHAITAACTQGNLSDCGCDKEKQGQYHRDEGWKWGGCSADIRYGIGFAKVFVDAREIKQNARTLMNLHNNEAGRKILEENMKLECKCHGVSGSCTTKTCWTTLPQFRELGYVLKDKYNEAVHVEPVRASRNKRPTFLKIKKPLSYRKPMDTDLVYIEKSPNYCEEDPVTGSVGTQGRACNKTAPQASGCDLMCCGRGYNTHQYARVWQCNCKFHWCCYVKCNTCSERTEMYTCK
The data set is described as follows: co-IP with anti-FSTL1 antibody or IgG control from A253 lysate, western blot for Wnt7a.

Data set [2] concerns the target HuR (ELAVL1) (UniProt Q15717 Q15717:1-326). The data set is described as follows: EMSA; 0.2-0.6 uM HuR; 30 mM Tris pH 7.4, 5 mM MgCl2, 50 mM KCl, yeast tRNA, room temperature; sequence listed as DNA, assayed as RNA transcript. The conditions noted are these: pre-miRNA hairpin.
Protocol: After 30 minutes at room temperature, reaction products were resolved through 6% native polyacrylamide gel electrophoresis. […] The resulting gel was dried and the protein RNA complex and unbound RNA were visualized by phosphor-imaging.

HuR (ELAVL1), sequence (Q15717 whole entry, one chain of several): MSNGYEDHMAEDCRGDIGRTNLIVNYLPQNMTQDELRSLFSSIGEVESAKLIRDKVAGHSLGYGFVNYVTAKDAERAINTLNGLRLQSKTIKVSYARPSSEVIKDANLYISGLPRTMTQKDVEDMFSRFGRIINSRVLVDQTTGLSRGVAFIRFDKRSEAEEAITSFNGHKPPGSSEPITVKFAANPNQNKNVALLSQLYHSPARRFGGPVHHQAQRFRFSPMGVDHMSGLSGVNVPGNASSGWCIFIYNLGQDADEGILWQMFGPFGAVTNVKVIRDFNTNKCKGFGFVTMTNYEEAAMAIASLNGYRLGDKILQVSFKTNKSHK

B1: Follistatin-related protein 1 (FSTL1) (other)
chain: EEELRSKSKICANVFCGAGRECAVTEKGEPTCLCIEQCKPHKRPVCGSNGKTYLNHCELHRDACLTGSKIQVDYDGHCKEKKSVSPSASPVVCYQSNRDELRRRIIQWLEAEIIPDGWFSKGSNYSEILDKYFKNFDNGDSRLDSSEFLKFVEQNETAINITTYPDQENNKLLRGLCVDALIELSDENADWKLSFQEFLKCLNPSFNPPEKKCALEDETYADGAETEVDCNRCVCACGNWVCTAMTCDGKNQKGAQTQTEEEMTRYVQELQKHQETAEKTKRVSTKEI
notes: Endogenous secreted glycoprotein in A253 cell lysates, pulled down with the anti-FSTL1 antibody; also called follistatin-like-1
For B1, the binding result in data set [1] was “binds”.

B2: pre-miR-198 WT (ssRNA)
RNA: UCAUUGGUCCAGAGGGGAGAUAGGUUCCUGUGAUUUUUCCUUCUUCUCUAUAGAAUAAAUGA
For B2, the binding result in data set [2] was “binds”.
